Data on four substances can be found in PMC4729829, “BAP1/ASXL1 recruitment and activation for H2A deubiquitination” (Nature Communications, 2016).

Data set [1] has as its system BAP1 C91A;ASXL1 DEUBAD (ASXL1DEU). In words: stopped-flow fluorescence polarization. As to conditions: 20 C, 20 nM NCP, histone H2A K119 mono-ubiquitinated by RING1B/BMI1, EMSA: 100 nM NCP, 4-12% Tris-glycine native gel, 4 C, FP: 25 mM HEPES pH 7.5, 150 mM NaCl, 0.05% Tween-20, 0.5 mM TCEP. A general note: Mobility shift assays separate free from complexed probe on a gel.

For data set [2], the target named is BRCA-1-associated protein 1 (BAP1), full length, wild type (human) (UniProt Q92560).
In data set [3] the target is BAP1/ASXL1^DEU complex (wild type) (human) (UniProt Q92560).
Data set [4] addresses Nucleosome core particle mono-ubiquitinated at H2A K119 with N-terminally TAMRA-labeled ubiquitin (Xenopus | not stated) (UniProt P06897). In words: fluorescence polarisation; stopped-flow; 20 nM ^TAMRAUb-NCP mixed with various concentrations of inactive (C91A) BAP1 or BAP1/ASXL1^DEU; 25 mM HEPES pH 7.5, 150 mM NaCl, 0.05% Tween-20, 0.5 mM TCEP; 20 °C; kobs against concentration by linear regression.

In data set [5] the target is BAP1/ASXL1DEU complex (human) (UniProt Q92560).

“TAMRA-Ub-NCP (H2A K119ub, Widom 601 167 bp)” had a Kd in data set [1] of 4 µM.

“Non-hydrolyzable H2A-peptide ubiquitin conjugate (ubiquitin linked at the K119 position) (from UniProt P0CG48 1-75)” showed an IC50 of inhibition of Ub-AMC hydrolysis by BAP1 (500 pM enzyme, 2 μM Ub-AMC, conjugate up to 200 μM) in data set [2] of 45 μM. Moreover, in data set [3], the IC50 of inhibition of Ub-AMC hydrolysis by the BAP1/ASXL1^DEU complex, against BAP1 alone (fold lower than BAP1 alone) is more than 10.

As to “BAP1 (C91A)/ASXL1^DEU complex (from UniProt Q92560 1-729; Q8IXJ9 238-390)”, the Kd in data set [4] amounted to 4 µM.

The substance “non-hydrolyzable H2A-peptide ubiquitin conjugate (H2A-K119) (from UniProt P0CG47 1-75)” showed a Supplementary Table 3: IC50 of the non-hydrolyzable H2A ubiquitin conjugate for inhibition of Ub-AMC hydrolysis by BAP1/ASXL1DEU in data set [5] of 3.3 µM.

Usually Kd stands for a measure of binding affinity in units of concentration.
